Source: patent publication US12331106B2, “Anti-angiopoietin-2 antibodies that induce Tie2 activation” (Institute for Basic Science, priority 2018, dated 2025)

Assays:
[1] = system: choroidal neovascularization (CNV) / choriocapillaris; experiment: Laser-induced CNV model, OCTA: CNV volume and choriocapillary regeneration (avascular space); format: in vivo, mice; conditions: for reduction of the avascular space: 5 μg intravitreal at 7 days, change from baseline
Protocol: To determine the effect of 2C8H11 in CNV regression and choriocapillary regeneration after establishment of CNV, Fc, VEGF-Trap, control antibody or 2C8H11 (5 μg each) was given intravitreally to the mice by the Nanoliter 2000 micro-injector (World Precision Instruments) at 7 days after laser photocoagulation. Intra-vital optical coherence tomography angiography (OCTA) was performed at 6, 14, 21, and 35 days after laser photocoagulation (FIG. 14A). The retinochoroidal layers were imaged using a prototype high-speed swept-source optical coherence tomography (OCT) system, utilizing a custom ring cavity wavelength-swept laser centered at 1048 nm with an A-scan rate of 230 kHz. OCT images were collected in a 1.7 mm×1.7 mm field of view within the retino-choroidal layer to monitor regeneration of choroidal vasculatures at the site of laser photocoagulation after intravitreal injection of reagents. […] Then, by using automatic layer flattening and segmentation algorithms, cross-sectional OCT angiograms were flattened to RPE, and en face OCT angiograms were generated by separate projection of each flattened cross-sectional OCT angiogram in three depth ranges: inner retinal, outer retinal and choroidal layers. The outer plexiform layer and Bruch's membrane were defined as the boundaries separating inner retinal, outer retinal, and choroidal layers. The density of retina and choroid vessel was automatically calculated as the proportion of measured area occupied by flowing blood vessels defined as pixels having decorrelation values above the threshold level. Avascular pixels were detected from the en face OCT angiogram representing choroidal layer by means of the image processing toolbox of MATLAB® (Math Works). Then the total volume of the avascular space surrounding the laser injury site was calculated by summing the number of avascular pixels multiplied by the volume of one pixel. In order to analyze the changing complexion of avascular space volume, serially measured values in each eye were transformed into percentage change from baseline value. […] Overall, these findings indicate that both 2C8H11 and […] promotes regeneration of the choriocapillaris, while VEGF-Trap leads to choriocapillary regression in the laser-induced CNV model.

[2] = system: downstream signaling of the Tie2 receptor (Akt phosphorylation) in HUVECs; experiment: Akt phosphorylation in HUVECs by humanized anti-Ang2 antibodies (immunoblot); format: cell-based, human; conditions: hAng2 1 μg/ml, 30 min, antibody 0.5 μg/ml, maintained until 50 μg/ml
Protocol: To investigate whether the humanized anti-Ang2 antibodies induce the downstream signaling of the Tie2 receptor in endothelial cells, HUVECs (LONZA™) were treated with human Ang2 protein together with humanized anti-Ang2 antibody. Then, the level of Akt phosphorylation, the main downstream signaling protein of Tie2 receptor was measured by immunoblotting. To compare the degree of Akt activation, cells were treated with full-length hAng2 (R&D® Systems) alone or antibody alone in the experiment.
Specifically, HUVEC cells (1×10^5 cells/ml) were cultured in EGM-2 (LONZA™) at 37° C. in 60 mm culture dish. Cells of 90% confluency were incubated with EBM-2 (LONZA™) for 4 hrs. The serum-starved HUVECs were treated with the mixture of anti-Ang2 antibody and hAng2 protein (1 μg/ml, R&D® Systems), and further incubated for 30 min. The cells were washed with cold PBS, treated with lysis buffer, and lysed at 4° C. for 20 min. Then, the cell lysates were prepared by centrifugation at 13000 rpm for 15 min. 5× SDS sample buffer was added to the cell lysate and the mixture was boiled at 95° C. for 5 min. Then, the mixture was subjected to SDS-PAGE and subsequent Western blotting.
To investigate the phosphorylation of Akt, the membrane was blocked with 5% skim milk-containing TBST for 1 hr at RT, and incubated with anti-phospho-Akt antibody (S473) at 4° C. for about 8 hrs. […]

hAng2 = molecular target: T1, hAng2 (Homo sapiens, UniProt O15123); experiment: OCTET affinity of humanized anti-Ang2 antibodies against hAng2; format: binding; conditions: OCTET, antibody fixed on AR2G biosensor, hAng2 50-0 nM, 1:1 binding model
T1 sequence (O15123 19-496): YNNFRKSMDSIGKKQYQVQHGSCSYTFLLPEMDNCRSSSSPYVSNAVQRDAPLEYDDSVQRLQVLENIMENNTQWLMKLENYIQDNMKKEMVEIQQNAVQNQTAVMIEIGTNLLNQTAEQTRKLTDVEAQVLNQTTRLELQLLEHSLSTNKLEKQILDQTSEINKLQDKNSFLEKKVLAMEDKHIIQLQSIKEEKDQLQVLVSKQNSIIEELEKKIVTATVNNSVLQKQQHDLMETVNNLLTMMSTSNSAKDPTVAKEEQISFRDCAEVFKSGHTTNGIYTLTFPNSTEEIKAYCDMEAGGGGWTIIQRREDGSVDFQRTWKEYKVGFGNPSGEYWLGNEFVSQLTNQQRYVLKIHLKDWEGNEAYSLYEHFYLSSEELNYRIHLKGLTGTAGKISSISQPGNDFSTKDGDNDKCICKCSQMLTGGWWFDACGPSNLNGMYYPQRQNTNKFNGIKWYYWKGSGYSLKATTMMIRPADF
Protocol: The affinity of humanized anti-Ang2 antibody against hAng2 was measured using OCTET® system (ForteBio). Specifically, buffer and samples were measured in total 200 μl/well using Black 96-well plates (96 well F-type black plates, Greiner). The biosensor used for affinity measurements was hydrated for 10 min before measurement with AR2G tip (ForteBio OCTET®). After the hydration, humanized anti-Ang2 antibody was diluted in 10 mM sodium acetate, pH 6.0 buffer at a concentration of 10 μg/ml, fixed on AR2G biosensor, and blocked with 1M ethanolamine. The recombinant hAng2 was diluted to 50, 25, 12.5, 6.25, 3.125, and 0 nM with 1× kinetic buffer, and subjected to association for 300 sec and dissociation for 900 sec. For affinity measurement (KD), association rate (K-on) and dissociation rate (K-off) were analyzed by binding curve (global) and fitted to 1:1 binding model using OCTET® data analysis v9.0.0.10 program.
The affinities of humanized 2C8 antibodies to hAng2 were in Table 15.

B1: 2C8H11: humanized anti-Ang2 human IgG1 antibody from mouse 2C8; VH SEQ ID NO: 55, VL SEQ ID NO: 56 (antibody, V domains shown)
VH: QVQLVQSGAEVKKPGASVKVSCKASGYTFTSYWMHWVRQAPGQGLEWMGMIDPSDSETRLNQKFKDRVTMTRDTSTSTVYMELSSLRSEDTAVYYCARRFYYGSDWYFDVWGQGTLVTVSS
VL: DIQLTQSPSFLSASVGDRVTITCKASQDVGTAVAWYQQKPGKAPKLLIYWASTRHTGVPSRFSGSGSGTEFTLTISSLQPEDFATYYCQQYSSYPLTFGQGTKVEIK
modifications: human IgG1 constant regions; VH; VL
[1]; 5 μg intravitreal at 7 days after laser photocoagulation
  CNV volume in outer retinas (OCTA): markedly reduced CNV volume
[1]; 14 days after laser photocoagulation
  reduction of the avascular space: 30.1%
[1]; 21 days after laser photocoagulation
  reduction of the avascular space: 36.4%
[1]; 35 days after laser photocoagulation
  reduction of the avascular space: 37.0%
[2]
  Akt phosphorylation: increased markedly
hAng2
  Kdis: 1.4e-05 s⁻¹
  Kon: 66000 M⁻¹ s⁻¹
